Results: patent publication US20230272047A1 (University of Washington, published 2023)
Where a chain is given by its changes, count along the chain named. Names and notes keep the numbering of the source.

B1: 3DS6 (designed binder)
chain: DKEDELRELAKELVREYEKRGVSEEEIALLVALAANFAVVIVFDNEEQAERAAKYIKKKLPSAVIVIFNNFVFVYVDSREDERIAWELAQEAQ
notes: Expressed in E. coli; the N-terminal His tag was cleaved with TEV
B2: 3DS10 (designed binder)
chain: TEEERLREEVKRVAQRAEEEGANEEEIAQILLLALNAAVVVVVESEEQAERVAQYIREVVPEALVIVYNNFVVIFVESDEAARRAWEAAERAQ
notes: as for B1
B3: 3DS11 (designed binder)
chain: DLEERVRKAVNEAQEEAKRNNLDENEAALEAALRLGVVVLVVVDSEEQAERVAKYVHKLVPSVRVVIYNNLVFFHVDTDEEARRVYEAAERAQ
notes: as for B1
B4: 3DS23 (designed binder)
chain: DEEEEEKEEIRRQLDEARERGVSEEEAAIEVAQNFNFIVVVVVDSEEEAERVAEYVRREVPRVHIVIVQNVVFFRVDSDEDARRVWELAQKAQ
notes: as for B1
B5: 2DS25 (purified from E. coli) (designed binder)
chain: DEEEIQKAIEELLRKGVSEEEAAIIIAQRFNVAVVVVVQDERQAKHISEYIRRYIPEADVILFANIVVIKVETEELRKRVWEAAQKAY
notes: Expressed in E. coli with an N-terminal histidine tag and a TEV site; Eluted as a monomer on SEC
B6: 3DS2 (designed binder)
chain: TEDEEYEERVREALEEAKKKNEHNEELVAQIALLILGAVVVIVAESEEAAKRAAQYVRERVPNAKVYVFDNFVFVHAESREDQEAAWRAAQEAM
notes: as for B1
B7: 2DS25_KO (W81A/Q85A) (designed binder)
chain: B5 chain with W81A, Q85A

Columns and labels:
[1] = biological target: T1, human transferrin receptor 1 ectodomain, biotinylated (human, UniProt P02786 89-760, biotinylated in vitro (Avidity kit) at the C-terminal Avi tag); assay: single concentration biolayer interferometry (1 µM design)
T1 construct: extracellular domain; Expressed as IgK-sFLAG-His-Sen-TEV-TfR1-his-Avi in the Daedalus system; The N-terminal expression tag was cleaved with TEV; In yeast display it was detected with streptavidin-phycoerythrin; also called hTfR; hTfR ectodomain; not shown: C-terminal his-Avi tag (printed 'his-Avin')

[2] = biological target: T1, human transferrin receptor 1 …; assay: biolayer interferometry, biotinylated hTfR on streptavidin biosensors
[3] = biological target: T1, human transferrin receptor 1 …; assay: single concentration biolayer interferometry, biotinylated hTfR on streptavidin biosensors

T1 sequence (P02786 89-760): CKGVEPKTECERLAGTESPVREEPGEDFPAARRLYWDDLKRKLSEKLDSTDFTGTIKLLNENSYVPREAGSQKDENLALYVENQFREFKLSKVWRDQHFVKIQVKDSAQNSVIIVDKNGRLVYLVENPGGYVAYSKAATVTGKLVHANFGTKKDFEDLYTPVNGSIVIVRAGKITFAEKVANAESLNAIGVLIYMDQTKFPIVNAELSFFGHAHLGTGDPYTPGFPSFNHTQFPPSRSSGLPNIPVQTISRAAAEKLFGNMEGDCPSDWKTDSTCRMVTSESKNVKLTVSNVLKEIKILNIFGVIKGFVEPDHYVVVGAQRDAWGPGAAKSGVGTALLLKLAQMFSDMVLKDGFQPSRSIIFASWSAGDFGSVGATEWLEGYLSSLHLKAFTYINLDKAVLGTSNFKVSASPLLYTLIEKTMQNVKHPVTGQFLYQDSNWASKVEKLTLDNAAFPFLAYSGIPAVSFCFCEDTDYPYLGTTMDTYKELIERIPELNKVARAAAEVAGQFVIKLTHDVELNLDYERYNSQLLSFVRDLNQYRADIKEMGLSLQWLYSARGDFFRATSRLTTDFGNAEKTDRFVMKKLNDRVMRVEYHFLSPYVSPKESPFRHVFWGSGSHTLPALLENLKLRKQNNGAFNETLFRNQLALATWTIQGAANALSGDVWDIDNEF

| binding result [1] | further results | Binder |
| --- | --- | --- |
| binds |  | B1 |
| binds |  | B2 |
| binds |  | B3 |
| binds |  | B4 |
|  | binding result [2]: binds | B5 |
| binds |  | B6 |
|  | binding result [3]: no binding | B7 |
